Test results as given in the supplement of paper PMC6757056.
± gives the standard deviation of the averaged measurements.

B1: library; a variant is named by its letters at N, in order (parent)
chain: GCUGUCACCGAGAAACUGUGAAGUAUAUCUUAAACCUGGGCACUUAAAAGAUAUAUGGAGUUAGUAGUGCAACCUGCUCGGUCUGAUGAGUCCNNNNNNGGACGAAACAGC

Legend:
cyclic di-GMP [1] = variants of: B1; test: normalized RNA/DNA level without ligand (relative to sTRSVctl = 100) (log10 (% of sTRSVctl)); HEK293T; ligand: cyclic di-GMP (c-di-GMP-II aptamer); higher = less ribozyme self-cleavage, higher mRNA level; conditions: reporter: mCherry (pCS4076), ligand present: no
Summary of the method: (§1)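 RNA level was computed as RNA reads over DNA reads divided by a spiked-in non-cleaving sequence or by the top sequences, then scaled and log-transformed. Scaling was ×100 with log10, the top group was 25 sequences, and the threshold was ≥100 DNA reads. The reads came from HEK293T cells transfected at 4 µg per 6-well well with ribozyme switch library plasmids (mCherry, or eGFP in some ligand experiments). Total RNA was extracted with EDTA 72 h after transfection, with any ligand added 1 h before it.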

cyclic di-GMP [2] = variants of: B1; test: normalized RNA/DNA level with ligand (relative to sTRSVctl = 100) (log10 (% of sTRSVctl)); HEK293T; ligand: cyclic di-GMP (c-di-GMP-II aptamer); ligand concentration (+) RNA-Seq: 1 mM; higher = less ribozyme self-cleavage, higher mRNA level; conditions: reporter: mCherry (pCS4076), ligand present: yes
Summary of the method: as §1

In the case of GCUGUCACCGAGAAACUGUGAAGUAUAUCUUAAACCUGGGCACUUAAAAGAUAUAUGGAGUUAGUAGUGCAACCUGCUCGGUCUGAUGAGUCCAAACCUGGACGAAACAGC, the “normalized RNA/DNA level without ligand (log10)” value (cyclic di-GMP [1]) is reported as 1.72 ± 0.018 and the “normalized RNA/DNA level with ligand (log10)” value (cyclic di-GMP [2]) is reported as 1.84 ± 0.097.

For GCUGUCACCGAGAAACUGUGAAGUAUAUCUUAAACCUGGGCACUUAAAAGAUAUAUGGAGUUAGUAGUGCAACCUGCUCGGUCUGAUGAGUCCAAACCCGGACGAAACAGC, the “normalized RNA/DNA level without ligand (log10)” value (cyclic di-GMP [1]) was 1.718 ± 0.0046 and the “normalized RNA/DNA level with ligand (log10)” value (cyclic di-GMP [2]) was 1.86 ± 0.09.

In the case of GCUGUCACCGAGAAACUGUGAAGUAUAUCUUAAACCUGGGCACUUAAAAGAUAUAUGGAGUUAGUAGUGCAACCUGCUCGGUCUGAUGAGUCCAAACCAGGACGAAACAGC, the “normalized RNA/DNA level without ligand (log10)” value (cyclic di-GMP [1]) is reported as 1.57 ± 0.054 and the “normalized RNA/DNA level with ligand (log10)” value (cyclic di-GMP [2]) is reported as 1.76 ± 0.094.

For GCUGUCACCGAGAAACUGUGAAGUAUAUCUUAAACCUGGGCACUUAAAAGAUAUAUGGAGUUAGUAGUGCAACCUGCUCGGUCUGAUGAGUCCUAACCAGGACGAAACAGC, the “normalized RNA/DNA level without ligand (log10)” value (cyclic di-GMP [1]) was 1.74 ± 0.036 and the “normalized RNA/DNA level with ligand (log10)” value (cyclic di-GMP [2]) was 1.86 ± 0.13.

In the case of GCUGUCACCGAGAAACUGUGAAGUAUAUCUUAAACCUGGGCACUUAAAAGAUAUAUGGAGUUAGUAGUGCAACCUGCUCGGUCUGAUGAGUCCUAACCCGGACGAAACAGC, the “normalized RNA/DNA level without ligand (log10)” value (cyclic di-GMP [1]) is reported as 1.77 ± 0.021 and the “normalized RNA/DNA level with ligand (log10)” value (cyclic di-GMP [2]) is reported as 1.9 ± 0.08.

In the case of GCUGUCACCGAGAAACUGUGAAGUAUAUCUUAAACCUGGGCACUUAAAAGAUAUAUGGAGUUAGUAGUGCAACCUGCUCGGUCUGAUGAGUCCUAACCGGGACGAAACAGC, the “normalized RNA/DNA level without ligand (log10)” value (cyclic di-GMP [1]) is reported as 1.72 ± 0.12 and the “normalized RNA/DNA level with ligand (log10)” value (cyclic di-GMP [2]) is reported as 1.81 ± 0.13.

With GCUGUCACCGAGAAACUGUGAAGUAUAUCUUAAACCUGGGCACUUAAAAGAUAUAUGGAGUUAGUAGUGCAACCUGCUCGGUCUGAUGAGUCCUAACAUGGACGAAACAGC the “normalized RNA/DNA level without ligand (log10)” value (cyclic di-GMP [1]) was 1.62 ± 0.019 and the “normalized RNA/DNA level with ligand (log10)” value (cyclic di-GMP [2]) was 1.76 ± 0.08.

For GCUGUCACCGAGAAACUGUGAAGUAUAUCUUAAACCUGGGCACUUAAAAGAUAUAUGGAGUUAGUAGUGCAACCUGCUCGGUCUGAUGAGUCCCAACCGGGACGAAACAGC, the “normalized RNA/DNA level without ligand (log10)” value (cyclic di-GMP [1]) was 1.817 ± 0.009 and the “normalized RNA/DNA level with ligand (log10)” value (cyclic di-GMP [2]) was 1.88 ± 0.071.

In the case of GCUGUCACCGAGAAACUGUGAAGUAUAUCUUAAACCUGGGCACUUAAAAGAUAUAUGGAGUUAGUAGUGCAACCUGCUCGGUCUGAUGAGUCCCAACCAGGACGAAACAGC, the “normalized RNA/DNA level without ligand (log10)” value (cyclic di-GMP [1]) is reported as 1.54 ± 0.084 and the “normalized RNA/DNA level with ligand (log10)” value (cyclic di-GMP [2]) is reported as 1.71 ± 0.1.

With GCUGUCACCGAGAAACUGUGAAGUAUAUCUUAAACCUGGGCACUUAAAAGAUAUAUGGAGUUAGUAGUGCAACCUGCUCGGUCUGAUGAGUCCCAACCCGGACGAAACAGC the “normalized RNA/DNA level without ligand (log10)” value (cyclic di-GMP [1]) was 1.719 ± 0.015 and the “normalized RNA/DNA level with ligand (log10)” value (cyclic di-GMP [2]) was 1.82 ± 0.12.

With GCUGUCACCGAGAAACUGUGAAGUAUAUCUUAAACCUGGGCACUUAAAAGAUAUAUGGAGUUAGUAGUGCAACCUGCUCGGUCUGAUGAGUCCGAACCUGGACGAAACAGC the “normalized RNA/DNA level without ligand (log10)” value (cyclic di-GMP [1]) was 1.69 ± 0.033 and the “normalized RNA/DNA level with ligand (log10)” value (cyclic di-GMP [2]) was 1.86 ± 0.08.

In the case of GCUGUCACCGAGAAACUGUGAAGUAUAUCUUAAACCUGGGCACUUAAAAGAUAUAUGGAGUUAGUAGUGCAACCUGCUCGGUCUGAUGAGUCCGAACCAGGACGAAACAGC, the “normalized RNA/DNA level without ligand (log10)” value (cyclic di-GMP [1]) is reported as 1.677 ± 0.0078 and the “normalized RNA/DNA level with ligand (log10)” value (cyclic di-GMP [2]) is reported as 1.8 ± 0.13.

GCUGUCACCGAGAAACUGUGAAGUAUAUCUUAAACCUGGGCACUUAAAAGAUAUAUGGAGUUAGUAGUGCAACCUGCUCGGUCUGAUGAGUCCGAACCGGGACGAAACAGC was tested, and the “normalized RNA/DNA level without ligand (log10)” value (cyclic di-GMP [1]) was 1.7241 ± 0.00012 and the “normalized RNA/DNA level with ligand (log10)” value (cyclic di-GMP [2]) was 1.81 ± 0.1.
